Data as given in article PMC9482650, “Quantitative fragmentomics allow affinity mapping of interactomes” (Nature Communications, 2022).

T1: APBA2_1, Q99767
T1 sequence (Q99767 563-664, limits assumed, looked up): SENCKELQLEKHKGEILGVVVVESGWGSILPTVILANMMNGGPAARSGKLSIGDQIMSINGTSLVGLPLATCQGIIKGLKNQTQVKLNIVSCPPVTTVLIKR

T2: DFNB31_3, Q9P202
T2 sequence (Q9P202 811-907, limits assumed, looked up): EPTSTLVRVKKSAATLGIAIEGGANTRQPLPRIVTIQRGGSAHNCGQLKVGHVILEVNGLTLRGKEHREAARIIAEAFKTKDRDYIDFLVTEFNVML

T3: DLG3_1, Q92796
T3 sequence (Q92796 125-227, limits assumed, looked up): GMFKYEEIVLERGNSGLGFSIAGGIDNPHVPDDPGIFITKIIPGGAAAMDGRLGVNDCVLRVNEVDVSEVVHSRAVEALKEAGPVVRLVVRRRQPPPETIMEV

T4: HTRA3, P83110
T4 sequence (P83110 354-453, limits assumed, looked up): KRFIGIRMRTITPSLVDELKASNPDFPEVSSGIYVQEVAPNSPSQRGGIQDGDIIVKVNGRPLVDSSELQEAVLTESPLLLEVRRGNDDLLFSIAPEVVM

T5: LNX2_2, Q8N448
T5 sequence (Q8N448 334-432, limits assumed, looked up): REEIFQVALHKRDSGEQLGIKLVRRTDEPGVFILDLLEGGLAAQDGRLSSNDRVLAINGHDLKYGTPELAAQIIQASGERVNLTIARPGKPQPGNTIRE

T6: MPDZ_10, O75970
T6 sequence (O75970 1624-1722, limits assumed, looked up): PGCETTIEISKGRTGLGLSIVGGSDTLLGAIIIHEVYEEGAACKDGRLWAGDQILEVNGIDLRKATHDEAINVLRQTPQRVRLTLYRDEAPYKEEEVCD

T7: MPP6, Q9NZW5
T7 sequence (Q9NZW5 125-219, limits assumed, looked up): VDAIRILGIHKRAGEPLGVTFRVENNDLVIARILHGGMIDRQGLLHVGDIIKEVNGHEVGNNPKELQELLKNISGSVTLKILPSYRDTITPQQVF

T8: NHERF3_1, Q5T2W1
T8 sequence (Q5T2W1 4-100, limits assumed, looked up): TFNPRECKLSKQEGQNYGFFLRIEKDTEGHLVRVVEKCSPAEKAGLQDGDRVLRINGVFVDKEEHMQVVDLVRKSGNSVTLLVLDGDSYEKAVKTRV

T9: NHERF3_3, Q5T2W1
T9 sequence (Q5T2W1 238-333, limits assumed, looked up): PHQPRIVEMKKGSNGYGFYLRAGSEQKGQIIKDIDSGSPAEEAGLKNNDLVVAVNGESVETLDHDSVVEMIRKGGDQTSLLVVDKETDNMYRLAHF

T10: RAPGEF6, Q8TEU7
T10 sequence (Q8TEU7 525-625, limits assumed, looked up): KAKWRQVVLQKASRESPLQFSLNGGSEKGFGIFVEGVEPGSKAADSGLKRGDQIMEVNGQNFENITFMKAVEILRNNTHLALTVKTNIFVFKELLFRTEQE

T11: SNTA1, Q13424
T11 sequence (Q13424 82-180, limits assumed, looked up): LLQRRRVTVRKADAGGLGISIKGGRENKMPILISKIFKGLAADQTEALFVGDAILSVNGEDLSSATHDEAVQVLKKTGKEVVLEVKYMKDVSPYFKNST

T12: TJP3_3, O95049
T12 sequence (O95049 375-456, limits assumed, looked up): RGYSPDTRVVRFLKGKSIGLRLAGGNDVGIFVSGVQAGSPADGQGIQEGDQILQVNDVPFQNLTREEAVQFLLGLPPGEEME


Columns and labels:
Experiment in all cases: holdup assay
Set-up in all cases: key: below the threshold = too weak to quantify, mostly under pKd 3.1 to 4
Conditions in all cases: plain residues with an end cap or a label only (N-terminal biotin on a linker: ado-ado)
AHNAK1, Q09666 = molecular target: AHNAK1, Q09666
AHNAK1, Q09666, sequence (Q09666 4-100): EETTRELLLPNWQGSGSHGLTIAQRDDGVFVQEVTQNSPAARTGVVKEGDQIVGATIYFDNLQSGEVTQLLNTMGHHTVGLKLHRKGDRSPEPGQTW

APBA2_1, Q99767 = molecular target: T1, APBA2_1, Q99767
DFNB31_3, Q9P202 = molecular target: T2, DFNB31_3, Q9P202
DLG1_2, Q12959 = molecular target: DLG1_2, Q12959
DLG1_2, Q12959, sequence (Q12959 314-412): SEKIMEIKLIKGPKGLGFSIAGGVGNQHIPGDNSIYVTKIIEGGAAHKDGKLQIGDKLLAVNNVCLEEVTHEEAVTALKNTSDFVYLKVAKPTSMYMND

DLG1_3, Q12959 = molecular target: DLG1_3, Q12959
DLG1_3, Q12959, sequence (Q12959 457-571): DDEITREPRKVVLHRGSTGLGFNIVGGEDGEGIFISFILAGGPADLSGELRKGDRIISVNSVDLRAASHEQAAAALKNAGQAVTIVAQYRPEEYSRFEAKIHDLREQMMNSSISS

DLG3_1, Q92796 = molecular target: T3, DLG3_1, Q92796
GORASP1, Q9BQQ3 = molecular target: GORASP1, Q9BQQ3
GORASP1, Q9BQQ3, sequence (Q9BQQ3 1-208): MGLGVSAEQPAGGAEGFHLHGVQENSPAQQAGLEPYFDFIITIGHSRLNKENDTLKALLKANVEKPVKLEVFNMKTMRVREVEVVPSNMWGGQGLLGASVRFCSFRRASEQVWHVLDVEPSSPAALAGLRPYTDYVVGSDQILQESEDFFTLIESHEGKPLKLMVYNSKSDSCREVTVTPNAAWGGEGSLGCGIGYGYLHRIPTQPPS

HTRA3, P83110 = molecular target: T4, HTRA3, P83110
Inadl_2, Q8NI35 = molecular target: Inadl_2, Q8NI35
Inadl_2, Q8NI35, sequence (Q8NI35 238-335): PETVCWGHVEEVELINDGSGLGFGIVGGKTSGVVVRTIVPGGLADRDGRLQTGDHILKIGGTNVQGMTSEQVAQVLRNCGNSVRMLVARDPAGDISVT

Inadl_9, Q8NI35 = molecular target: Inadl_9, Q8NI35
Inadl_9, Q8NI35, sequence (Q8NI35 1530-1615): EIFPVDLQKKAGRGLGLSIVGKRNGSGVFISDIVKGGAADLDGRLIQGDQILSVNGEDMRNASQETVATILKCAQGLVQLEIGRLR

LDB3, O75112 = molecular target: LDB3, O75112
LDB3, O75112, sequence (O75112 1-94): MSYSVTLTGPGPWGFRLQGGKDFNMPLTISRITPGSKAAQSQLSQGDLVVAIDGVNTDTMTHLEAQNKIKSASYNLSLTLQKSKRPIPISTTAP

LNX1_2, Q8TBB1 = molecular target: LNX1_2, Q8TBB1
LNX1_2, Q8TBB1, sequence (Q8TBB1 371-470): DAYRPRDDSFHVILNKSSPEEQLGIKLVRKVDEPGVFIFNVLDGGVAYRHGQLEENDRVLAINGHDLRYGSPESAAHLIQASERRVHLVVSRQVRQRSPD

LNX2_2, Q8N448 = molecular target: T5, LNX2_2, Q8N448
MAGI1_2, Q96QZ7 = molecular target: MAGI1_2, Q96QZ7
MAGI1_2, Q96QZ7, sequence (Q96QZ7 456-580): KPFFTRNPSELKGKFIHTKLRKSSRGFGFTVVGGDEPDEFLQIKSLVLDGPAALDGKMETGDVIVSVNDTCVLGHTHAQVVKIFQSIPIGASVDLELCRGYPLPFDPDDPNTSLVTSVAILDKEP

MPDZ_10, O75970 = molecular target: T6, MPDZ_10, O75970
MPP6, Q9NZW5 = molecular target: T7, MPP6, Q9NZW5
NHERF3_1, Q5T2W1 = molecular target: T8, NHERF3_1, Q5T2W1
NHERF3_3, Q5T2W1 = molecular target: T9, NHERF3_3, Q5T2W1
NHERF4_1, Q86UT5-2 = molecular target: NHERF4_1, Q86UT5-2
NHERF4_1, Q86UT5-2, sequence (Q86UT5 other isoform, or with tags, fused parts or gaps): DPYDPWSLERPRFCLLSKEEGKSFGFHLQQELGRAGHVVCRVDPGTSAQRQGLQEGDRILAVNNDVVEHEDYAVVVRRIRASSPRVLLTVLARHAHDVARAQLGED

NOS1, P29475 = molecular target: NOS1, P29475
NOS1, P29475, sequence (P29475 9-101): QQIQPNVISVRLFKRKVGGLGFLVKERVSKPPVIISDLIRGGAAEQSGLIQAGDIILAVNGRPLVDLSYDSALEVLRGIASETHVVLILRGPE

PDLIM1, O00151 = molecular target: PDLIM1, O00151
PDLIM1, O00151, sequence (O00151 1-87): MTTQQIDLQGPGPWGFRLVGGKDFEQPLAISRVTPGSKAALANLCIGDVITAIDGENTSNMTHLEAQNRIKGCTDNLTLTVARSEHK

PICK1, Q9NRD5 = molecular target: PICK1, Q9NRD5
PICK1, Q9NRD5, sequence (Q9NRD5 17-115): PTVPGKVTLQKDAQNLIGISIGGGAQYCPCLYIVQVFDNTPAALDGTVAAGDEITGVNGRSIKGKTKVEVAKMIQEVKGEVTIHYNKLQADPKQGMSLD

RAPGEF6, Q8TEU7 = molecular target: T10, RAPGEF6, Q8TEU7
SCRIB_3, Q14160 = molecular target: SCRIB_3, Q14160
SCRIB_3, Q14160, sequence (Q14160 999-1103): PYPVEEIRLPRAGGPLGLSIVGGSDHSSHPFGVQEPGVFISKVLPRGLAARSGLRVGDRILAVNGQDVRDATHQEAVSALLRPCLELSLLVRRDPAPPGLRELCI

SNTA1, Q13424 = molecular target: T11, SNTA1, Q13424
TJP3_3, O95049 = molecular target: T12, TJP3_3, O95049

| pKd (AHNAK1, Q09666) | pKd (APBA2_1, Q99767) | pKd (DFNB31_3, Q9P202) | pKd (DLG1_2, Q12959) | pKd (DLG1_3, Q12959) | pKd (DLG3_1, Q92796) | pKd (GORASP1, Q9BQQ3) | pKd (HTRA3, P83110) | pKd (Inadl_2, Q8NI35) | pKd (Inadl_9, Q8NI35) | pKd (LDB3, O75112) | pKd (LNX1_2, Q8TBB1) | pKd (LNX2_2, Q8N448) | pKd (MAGI1_2, Q96QZ7) | pKd (MPDZ_10, O75970) | pKd (MPP6, Q9NZW5) | pKd (NHERF3_1, Q5T2W1) | pKd (NHERF3_3, Q5T2W1) | pKd (NHERF4_1, Q86UT5-2) | pKd (NOS1, P29475) | Binder | further results |
| --- | --- | --- | --- | --- | --- | --- | --- | --- | --- | --- | --- | --- | --- | --- | --- | --- | --- | --- | --- | --- | --- |
| below the threshold | below the threshold | below the threshold | 5.48 | 4.36 | 4.3 | below the threshold | below the threshold | below the threshold | 3.53 | below the threshold | below the threshold | below the threshold | 4.32 | below the threshold | below the threshold | 4.03 | below the threshold | below the threshold | 3.77 | ARGPPRESEV [FAM110D, Q8TAY7] | pKd (PDLIM1, O00151): 3.71; pKd (PICK1, Q9NRD5): below the threshold; pKd (RAPGEF6, Q8TEU7): below the threshold; pKd (SCRIB_3, Q14160): 4.63; pKd (SNTA1, Q13424): 5.27; pKd (TJP3_3, O95049): below the threshold |
| below the threshold | below the threshold | below the threshold | 5.05 | 4.33 | 3.58 | below the threshold | below the threshold | below the threshold | below the threshold | below the threshold | below the threshold | below the threshold | 4.64 | 3.84 | 3.93 | 3.48 | below the threshold | 3.67 | 4.04 | NTLNRKTTPV [CACNG8, Q8WXS5] | pKd (PDLIM1, O00151): below the threshold; pKd (PICK1, Q9NRD5): 4.17; pKd (RAPGEF6, Q8TEU7): below the threshold; pKd (SCRIB_3, Q14160): 3.88; pKd (SNTA1, Q13424): 3.93; pKd (TJP3_3, O95049): below the threshold |
| below the threshold | below the threshold | below the threshold | 5.01 | 4.16 | 3.61 | below the threshold | below the threshold | below the threshold | below the threshold | below the threshold | below the threshold | below the threshold | 4.72 | 3.87 | below the threshold | below the threshold | below the threshold | below the threshold | 3.99 | NTANRRTTPV [CACNG2, Q9Y698] | pKd (PDLIM1, O00151): below the threshold; pKd (PICK1, Q9NRD5): below the threshold; pKd (RAPGEF6, Q8TEU7): below the threshold; pKd (SCRIB_3, Q14160): 3.92; pKd (SNTA1, Q13424): 4.1; pKd (TJP3_3, O95049): below the threshold |
